“And” between values parts separate entries of the source, which are not always exact repeats. Equal values may be shown once.
B1: Thermotoga maritima dihydrodipicolinate reductase (Tm-DHDPR) (enzyme, T. maritima)
chain: MKYGIVGYSGRMGQEIQKVFSEKGHELVLKVDVNGVEELDSPDVVIDFSSPEALPKTVDLCKKYRAGLVLGTTALKEEHLQMLRELSKEVPVVQAYNFSIGINVLKRFLSELVKVLEDWDVEIVETHHRFKKDAPSGTAILLESALGKSVPIHSLRVGGVPGDHVVVFGNIGETIEIKHRAISRTVFAIGALKAAEFLVGKDPGMYSFEEVIFGGE
notes: Dihydrodipicolinate reductase (DapB), Thermotoga maritima; construct not described; theoretical mass of the tetramer printed as 99,380 Da
B2: Arabidopsis thaliana dihydrodipicolinate reductase 2 (At-DHDPR2) (enzyme, UniProt Q8LB01 54-349, looked up)
chain: LSMGKSETFEEAGNSVAPGNGISIMVNGCSGKMGKAVIKAADSAGVNIVPTSFGSVEEAGQTVEVCGKEILVHGPTEREKVLSSVFEKYPELIVVDYTIPSAVNDNAELYGKVGVPFVMGTTGGDRTRLYKTVEESKIYAVISPQMGKQVVAFLAAMEIMSEQFPGAFAGYSLEVMESHQASKLDASGTAKAVISCFQKLGVSYDMDQIQLIRDPKQQIEVVGVPEEHVSGHAFHLYHLTSPDKTVSFEFQHNVCGRSIYAEGTVDAVLFLAKKIRSKAEKRIYNMIDVLREGNMR
notes: Dihydrodipicolinate reductase 2 (At-DHDPR2), Arabidopsis thaliana, plasmid encoding AT3G59890 from TAIR; primers excluded the chloroplast transit peptide as identified by chloroP; residues may remain after TEV cleavage; also called AT3G59890; source: E. coli BL21(DE3) Star, purified (His-Trap, TEV cleavage, second His-trap)
B3: Escherichia coli dihydrodipicolinate reductase (Ec-DHDPR) (enzyme, E. coli)
chain: MHDANIRVAIAGAGGRMGRQLIQAALALEGVQLGAALEREGSSLLGSDAGELAGAGKTGVTVQSSLDAVKDDFDVFIDFTRPEGTLNHLAFCRQHGKGMVIGTTGFDEAGKQAIRDAAADIAIVFAANFSVGVNVMLKLLEKAAKVMGDYTDIEIIEAHHRHKVDAPSGTALAMGEAIAHALDKDLKDCAVYSREGHTGERVPGTIGFATVRAGDIVGEHTAMFADIGERLEITHKASSRMTFANGAVRSALWLSGKESGLFDMRDVLDLNNL
notes: Dihydrodipicolinate reductase (DapB), Escherichia coli; construct not described; theoretical mass of the tetramer printed as 114,800 Da

Legend:
[1] = target: the molecule itself; assay: small angle X-ray scattering (SAXS); in-line gel filtration (Superdex 200 5/150), 20 mM Tris.HCl, 150 mM NaCl, pH 8.0, 27°C; initial concentration 2-5 mg/mL; volume and molecular weight by AUTOPOROD, comparison with crystal structures by CRYSOL
[2] = target: the molecule itself; assay: SEC-MALS; Malvern P3000 column with Viscotek TDA (refractive index, low angle and right angle light scattering); 100 µL of 1.0 mg/mL; 20 mM Tris-HCl, 150 mM NaCl, pH 8.0; 28°C

| Protein | stoichiometry N [1] | stoichiometry N [2] |
| --- | --- | --- |
| B1 | 4 | – |
| B2 | – | 2 and 4 |
| B3 | 4 | – |
